# Laboratory results: US20240035010, “COMPOSITIONS COMPRISING A VARIANT POLYPEPTIDE AND USES THEREOF” (Arbor Biotechnologies, Inc., published 2024)
# T1: variant nuclease L38G combination (P14R, D32R, I61R, E311R, L38G)
# T1 chain: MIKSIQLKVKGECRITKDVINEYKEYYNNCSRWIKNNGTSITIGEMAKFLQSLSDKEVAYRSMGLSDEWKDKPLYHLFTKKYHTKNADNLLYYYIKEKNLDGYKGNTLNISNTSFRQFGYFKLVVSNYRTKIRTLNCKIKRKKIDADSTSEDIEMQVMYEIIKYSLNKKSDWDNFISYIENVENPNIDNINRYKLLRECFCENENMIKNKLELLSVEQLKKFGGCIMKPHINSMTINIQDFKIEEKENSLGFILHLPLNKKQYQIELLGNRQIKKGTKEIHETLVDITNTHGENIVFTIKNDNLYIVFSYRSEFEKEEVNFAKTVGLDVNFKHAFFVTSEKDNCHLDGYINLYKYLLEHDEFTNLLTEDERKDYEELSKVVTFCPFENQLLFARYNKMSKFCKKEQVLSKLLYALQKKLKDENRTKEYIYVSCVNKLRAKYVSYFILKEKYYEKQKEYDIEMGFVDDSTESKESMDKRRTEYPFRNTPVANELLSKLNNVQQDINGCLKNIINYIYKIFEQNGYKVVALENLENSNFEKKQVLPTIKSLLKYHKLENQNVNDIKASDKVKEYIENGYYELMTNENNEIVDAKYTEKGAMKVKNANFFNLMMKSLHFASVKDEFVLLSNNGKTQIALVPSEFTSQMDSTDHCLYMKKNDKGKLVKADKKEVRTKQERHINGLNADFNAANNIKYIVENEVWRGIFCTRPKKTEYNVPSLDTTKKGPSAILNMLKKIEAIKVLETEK
# T2: variant nuclease E154G combination (P14R, D32R, I61R, E311R, E154G)
# T2 chain: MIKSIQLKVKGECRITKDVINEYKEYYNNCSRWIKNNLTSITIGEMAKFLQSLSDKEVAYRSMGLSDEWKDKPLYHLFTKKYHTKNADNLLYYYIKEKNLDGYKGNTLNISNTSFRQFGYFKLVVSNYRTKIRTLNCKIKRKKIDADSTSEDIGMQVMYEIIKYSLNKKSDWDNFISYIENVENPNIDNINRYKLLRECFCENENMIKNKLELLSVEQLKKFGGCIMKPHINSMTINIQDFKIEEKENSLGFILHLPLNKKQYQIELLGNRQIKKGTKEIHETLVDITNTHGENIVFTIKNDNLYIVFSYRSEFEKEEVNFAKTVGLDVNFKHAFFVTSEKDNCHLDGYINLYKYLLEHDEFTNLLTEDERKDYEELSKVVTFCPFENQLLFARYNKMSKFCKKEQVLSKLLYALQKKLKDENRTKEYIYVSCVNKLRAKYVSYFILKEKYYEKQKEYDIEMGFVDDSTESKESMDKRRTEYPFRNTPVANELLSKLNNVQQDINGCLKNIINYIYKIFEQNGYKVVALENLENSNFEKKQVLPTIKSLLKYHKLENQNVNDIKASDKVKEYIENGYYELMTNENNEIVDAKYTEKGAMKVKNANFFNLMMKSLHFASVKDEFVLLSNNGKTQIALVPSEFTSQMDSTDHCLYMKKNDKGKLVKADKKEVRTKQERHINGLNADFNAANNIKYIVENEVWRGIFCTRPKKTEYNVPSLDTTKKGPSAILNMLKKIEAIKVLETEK
# T3: variant nuclease T338G combination (P14R, D32R, I61R, E311R, T338G)
# T3 chain: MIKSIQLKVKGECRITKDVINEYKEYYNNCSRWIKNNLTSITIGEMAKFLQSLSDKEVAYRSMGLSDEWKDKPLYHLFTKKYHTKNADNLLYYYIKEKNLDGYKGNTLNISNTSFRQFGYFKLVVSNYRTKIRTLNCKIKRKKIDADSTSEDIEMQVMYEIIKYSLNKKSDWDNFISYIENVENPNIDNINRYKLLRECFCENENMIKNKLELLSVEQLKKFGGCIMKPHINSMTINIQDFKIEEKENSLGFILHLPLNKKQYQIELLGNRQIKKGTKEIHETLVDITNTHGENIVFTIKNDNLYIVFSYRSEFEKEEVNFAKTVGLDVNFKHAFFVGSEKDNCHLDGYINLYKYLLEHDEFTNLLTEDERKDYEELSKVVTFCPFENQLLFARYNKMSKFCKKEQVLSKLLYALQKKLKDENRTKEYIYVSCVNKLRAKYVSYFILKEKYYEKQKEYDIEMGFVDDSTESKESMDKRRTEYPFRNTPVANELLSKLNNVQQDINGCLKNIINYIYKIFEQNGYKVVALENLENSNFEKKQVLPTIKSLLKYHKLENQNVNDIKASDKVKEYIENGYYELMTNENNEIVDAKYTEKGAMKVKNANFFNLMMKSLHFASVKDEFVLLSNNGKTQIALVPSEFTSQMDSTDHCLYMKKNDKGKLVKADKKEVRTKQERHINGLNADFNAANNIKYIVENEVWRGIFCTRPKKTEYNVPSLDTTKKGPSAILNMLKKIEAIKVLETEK
# B1: EMX1 crRNA ; EMX1 target (ssRNA ; dsDNA)
# RNA: CUUGUUGUAUAUGUCCUUUUAUAGGUAUUAAACAACCCGCCGCUUCCUGAGCCAUC
# DNA 1: CCGCCGCTTCCTGAGCCATC
# DNA 2: GATGGCTCAGGAAGCGGCGG
# Tests used:
# Assay in all cases: cell_activity; PAM 5'-ATTG-3'
# Conditions in all cases: tags: pcDNA3.1 expression
# [1] = molecular target: T1, variant nuclease L38G combination
# [2] = molecular target: T2, variant nuclease E154G combination
# [3] = molecular target: T3, variant nuclease T338G combination
binder,measurement,setting,value
B1,indel editing activity,[1],0.16 fold of WT
same,indel editing activity,[2],6.04 fold of WT
same,indel editing activity,[3],7.58 fold of WT
